In the assay the target is T1, IGF1R (IGF1 receptor), antigen coated on the ELISA plate (UniProt P08069 31-932, limits assumed).
T1 construct: Construct not described; It may be the same histidine-tagged reagent as m8
As to the kind of experiment: ELISA, antigen coated at 2 µg/mL, antibody serially diluted, anti-kappa or anti-lambda HRP detection (FIG. 10). Here is the method: The absorbance at 450 nm was measured using a microtiter plate reader.

T1 sequence (P08069 31-932 limits assumed): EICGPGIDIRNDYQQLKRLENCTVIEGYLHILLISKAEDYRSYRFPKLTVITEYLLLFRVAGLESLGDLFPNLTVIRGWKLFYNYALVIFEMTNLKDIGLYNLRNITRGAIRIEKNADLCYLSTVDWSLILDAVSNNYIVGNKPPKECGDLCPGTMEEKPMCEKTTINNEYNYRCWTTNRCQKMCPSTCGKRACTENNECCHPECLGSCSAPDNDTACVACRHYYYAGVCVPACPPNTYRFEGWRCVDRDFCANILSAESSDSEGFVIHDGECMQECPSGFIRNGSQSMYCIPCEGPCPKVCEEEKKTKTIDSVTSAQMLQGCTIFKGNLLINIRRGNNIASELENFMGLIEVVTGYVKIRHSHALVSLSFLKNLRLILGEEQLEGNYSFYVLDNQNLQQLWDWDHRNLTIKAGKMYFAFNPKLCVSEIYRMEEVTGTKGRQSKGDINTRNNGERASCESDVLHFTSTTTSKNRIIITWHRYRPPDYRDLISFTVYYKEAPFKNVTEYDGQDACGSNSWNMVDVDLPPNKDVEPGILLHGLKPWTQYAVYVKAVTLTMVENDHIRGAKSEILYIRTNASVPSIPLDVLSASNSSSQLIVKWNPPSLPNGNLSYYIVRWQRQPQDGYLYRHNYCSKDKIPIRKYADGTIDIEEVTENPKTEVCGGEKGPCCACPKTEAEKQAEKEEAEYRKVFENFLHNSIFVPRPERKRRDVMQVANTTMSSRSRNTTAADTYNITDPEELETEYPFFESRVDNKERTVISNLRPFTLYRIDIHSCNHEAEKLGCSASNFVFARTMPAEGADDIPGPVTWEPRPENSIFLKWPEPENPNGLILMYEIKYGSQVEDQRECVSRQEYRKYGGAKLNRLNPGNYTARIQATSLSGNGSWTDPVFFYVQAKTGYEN

B1: anti-EGFR conventional antibody (monospecific bivalent, kappa light chain; parental arm of iMab-EI) (antibody, V domains shown)
VH: QVQLQESGPGLVKPSETLSLTCTVSGGSVSSGDYYWTWIRQSPGKGLEWIGHIYYSGNTNYNPSLKSRLTISIDTSKTQFSLKLSSVTAADTAIYYCVRDRVTGAFDIWGQGTMVTVSS
VL: DIQMTQSPSSLSASVGDRVTITCQASQDISNYLNWYQQKPGKAPKLLIYDASNLETGVPSRFSGSGSGTDFTFTISSLQPEDIATYFCQHFDHLPLAFGGGTKVEIK
notes: Conventional IgG with kappa light chain; constant regions not specified; also called anti-EGFR antibody; parental arm antibody
In the case of B1, the binding result is listed as “no binding”.

Source of the values: patent publication US20140155581A1 (AstraZeneca / MedImmune, published 2014).
